Measurements: patent US20260365692A1, “COMPOSITIONS COMPRISING PROTEINS DISSOLVED IN FLUORINATED SOLVENTS, AND METHODS OF MAKING AND USING THE SAME” (priority 2022, published 2026)

Legend:
β-gal = assay: Isothermal titration calorimetry, β-Gal; type: binding
Text: To test this assertion, PFNA binding to three exemplary proteins, BSA, β-Gal and IgG, was studied via isothermal titration calorimetry (ITC) and surface plasmon resonance (SPR) techniques. […] SPR analysis yielded similar results, with sensorgrams (FIGS. 14J-14L) that diverged from a simple 1:1 ligand-protein model. […] Similar phenomenon may explain the negative signals of the SPR data and further support the ability of PFNA to modulate the conformational plasticity of adsorbed proteins.

[1] = tested on: seven model proteins (Hb, GFP, BSA, β-Gal, IgG, TFN, URE); assay: Fluorochemical-mediated dispersion of test proteins into perfluorohexane; type: physicochemical; conditions: PFNA-mediated, protein hydrodynamic radius 3.5 nm
Text: Only the rabbit IgG Fc fragment is shown.
For PFAS amphiphiles, the combination of polar head group and fluorophilic tail additionally leads to their preferential assembly at water-fluorous interfaces. Based on these unique properties, it was speculated that PFAS compounds may noncovalently associate with proteins to mediate their phase separation into fluorous media. To test this, a screening assay was developed to qualitatively investigate the binding affinity of a library of perfluorinated chemicals with seven model proteins, which include human hemoglobin (Hb), green fluorescent protein (GFP), bovine serum albumin (BSA), (β-Galactosidase (β-Gal), rabbit serum immunoglobulin (IgG), bovine apo-transferrin (TFN), and urease (URE). This group of model proteins captures an array of physicochemical properties ranging in molecular weight, solvent accessible surface area (SASA), isoelectric point (pI), and hydrodynamic radii. A corresponding perfluorinated small molecule test set was selected to contain a plurality of functional groups, linear perfluorocarbon chain lengths, and cyclic or aromatic geometries (FIGS. 1-7). Selection of these compounds was based on their potential to form noncovalent bonds (i.e., hydrogen or ionic) with the solvent exposed protein surfaces. […] These three linear PFAS chemicals are currently regulated by the US Environmental Protection Agency based on their reproductive, immune, and hepatic toxicity (References: 44-46). In sum, the structural and biochemical diversity represented in the protein and fluorochemical libraries was rationally selected to allow structure-function-performance relationships to be ascertained from binding studies.

A549 cells = assay: Protein uptake in A549 cells, Texas Red-labeled Transferrin; type: cell-based, human; conditions: PFNA, 24 hours of incubation
Procedure: FIGS. 19A-19B depicts the uptake of Texas Red-labeled Transferrin in human lung A549 cells after 2 and 24 hours of incubation in the absence/presence of PFNA. Results are shown in relative fluorescence units (RFU).
Multiplexed in vitro assays were employed to probe the influence of PFNA interactions on protein uptake and transport in cells. A549 and PC9 human lung cells were prioritized for these assays given that pulmonary tissue is a primary site of perfluoroalkyl bioaccumulation in humans (Reference: 63). Before initiating experiments, cellular toxicity assays established a maximum tolerated dose of PFNA to avoid confounding protein transport experiments with substantive cell death. Protein uptake was then studied using green fluorescent protein (GFP) and bovine serum albumin (BSACy5) as model biologics that employ non-specific pinocytic mechanisms for cellular entry.

[2] = Acute toxicity in C57BL/6J mice (Example 3); type: in vivo; conditions: 24 h
Procedure: Two groups (n=5) of C57BL/6J mice received […] of 10 μM solutions of β-Gal that was either 1) prepared in sterile PBS or 2) dissolved in PFOc (1 mM PFNA) and extracted into sterile PBS. Due to the large solution volumes given (150 μL, ~15% of mouse blood volume), PFOc dispersed proteins were extracted into sterile saline before injection to avoid hyponatremia. Samples were administered by tail vein injection.
To assess acute toxicity, animals were intravenously administered solutions of β-Gal either prepared in sterile PBS or dissolved in PFOc (1 mM PFNA) and extracted into sterile PBS, as described above. After 24 hours, mice were sacrificed, and blood was collected via cardiac puncture. A minimum of 100 μL of whole blood was added to EDTA for complete blood count. The remainder was centrifuged (1000 rcf, 10 minutes) to isolate serum for chemistry analysis. Tissues (lungs, livers, kidneys, and spleens) from euthanized animals were collected and stored in 10% buffered-formalin immediately after euthanasia. […] from each organ were mounted onto glass slides and stained with Hematoxylin and Eosin (H&E). Four random fields in each section were examined under a microscope at 5× and 40× magnification. Tissue relevant clinical features were compared across samples. […]

[3] = Pharmacokinetics of β-Gal formulations in C57BL/6 mice (Example 4); type: in vivo; conditions: i.v.
Text: FIG. 55 depicts time-dependent enzymatic activity of β-Gal in plasma delivered systemically in either saline (β-GalSaline) or extracted PFOc (β-GalExt. PFOc). Data shown as average±s.d. of n=5 technical replicates. Statistical significance determined using Student's t-test and represented as n.s.=not significant, * p<0.05.
To test whether PD-7 coating and PFOc dispersion influences the pharmacokinetic properties of formulated proteins, f-Gal formulations were intravenously administered to C57BL/6 mice and monitored time dependent serum bioavailability (FIG. 55). This experiment utilized a fluorescent conversion substrate to monitor the amount of functional protein in serum, thereby investigating changes to both bioavailability and bioactivity. Due to the large solution volumes administered (150 μL, ~15% of mouse blood volume), PFOc dispersed proteins were extracted into sterile saline before injection to avoid hyponatremia. Future applications in larger mammals would allow direct injection of the fluorous dispersion, without pre-extraction, due to the increased blood volumes and bio-inert nature of most perfluorocarbon solvents. […] However, variance in the data yielded statistical significance only at the t=0 hr and t=3 hr time points.

Molecule: O=C(O)C(F)(F)C(F)(F)C(F)(F)C(F)(F)C(F)(F)C(F)(F)C(F)(F)C(F)(F)F [Compound 7, perfluoronanonic acid]
- evolution of heat (ITC) (β-gal): no significant evolution of heat
- protein dispersion [1]: 60%
- increase in cellular fluorescence (Transferrin uptake) compared to native protein (A549 cells): 43%

Molecule: β-Gal: β-Galactosidase (β-Gal), dissolved in PBS/saline or dispersed in PFOc
- BUN, RBC, HGB, HCT versus sham saline injection control ([2]; PFOc β-Gal, i.v.): none of these markers were statistically different
- histologic organ analyses ([2]; lung, kidney, liver, spleen, β-Gal from PFOc): did not identify signs of necrosis, cellular infiltration, inflammation, or hemorrhage
- serum half-life t1/2 ([3]; native β-Gal administered in saline): 7.2 min
- serum half-life t1/2 ([3]; β-Gal from PFOc formulations, extracted into saline): 30 min
